Results: patent publication US12589171B2, “177-Lu labeled peptide for site-specific uPAR-targeting” (priority 2012, dated 2026)

Assay: in vivo
Design: species or system NMRI nude mice
Conditions: female, NMRI nude, mouse, iv, total radioactivity
Procedure: For PET/CT imaging, one mouse was injected with ^64Cu-DOTA-AE105 and scanned 1 h post injection. Gamma planar imaging was performed on another mouse 1 h post injection of ^177Lu-DOTA-AE105. Quantitative data were based on manual drawings of region-of-interest analyses on PET/CT data and from analyzed whole tumor tissue using a gamma-counter for planar data. A. Representative images after PET/CT (left) and Gamma planar (right) imaging of HT-29 tumor xenograft. White arrows indicate tumor xenograft. B. […] Quantitative tumor uptake data is presented as % ID/g±SEM based on three animals. Ten min static PET scans were acquired with a microPET Focus 120 scanner (Siemens Medical Solutions, Malvern, PA) 1 hr post i.v. injection of approximately 10 MBq of either ^64Cu-DOTA-AE105 or ^18F-FLT during sevoflurane anesthesia. All PET/CT settings were used as described in detail previously. All results were analyzed using Inveon software (Siemens Medical Solutions) and PET data was expressed as percent of injected dose per gram tissue (% ID/g), with CT-data expressed as cubic millimeters (mm^3). […] This is illustrated in FIG. 2A (left), where a colorectal HT-29 tumor bearing mouse was PET/CT scanned using ^64Cu-DOTA-AE105. […] In FIG. 2A (right) is a representative planar image of a HT-29 tumor bearing mice after injection of ^177Lu-DOTA-AE105.

Compound: CC(C)C[C@H](NC(=O)[C@H](Cc1ccc(O)cc1)NC(=O)[C@@H](CCCNC(=N)N)NC(=O)[C@@H](CO)NC(=O)[C@H](Cc1ccccc1)NC(=O)[C@H](CC1CCCCC1)NC(=O)[C@H](CC(=O)O)NC(=O)CN1CCN(CC(=O)O)CCN(CC(=O)O)CCN(CC(=O)O)CC1)C(=O)N[C@@H](Cc1c[nH]c2ccccc12)C(=O)N[C@@H](CO)C(N)=O [^64Cu-DOTA-AE105, metal not drawn]
- tissue uptake at 1 h: 0.86 ± 0.03 %ID/g
